US20240026383A1 (priority 2020, published 2024)
Several values for one entry are separate records, joined by “and”; a condition that tells them apart may be missing. Equal entries are not always repeated. Where two headings read alike, the source gives them in different places.

Experiments:
FlgM gene of P. putida = experiment: Knock-out of the FlgM gene by homologous recombination with tagged-intron-FnCas12a; assay type: cell-based, Pseudomonas putida; conditions: T crRNA, 2 mM theophylline
Method: Further genome editing experiments were conducted to knock-out the FlgM gene of P. putida. A repair template (1125 bp) was included on the plasmids bearing approximately 500 bp homologous sides upstream and downstream of the FlgM gene. The repair template was introduced to either of the four tagged-intron-FnCas12a variants along with the T crRNA for counterselection or the NT crRNA as a control. Plasmids were transformed to P. putida through electroporation and the transformed cells were recovered in LB medium for 2 hours before plating on LB agar plates containing 50 μg ml^−1 kanamycin and 2 mM theophylline. Plates were incubated at 30° C. overnight and formed colonies were screened through colony PCR for the knock-out of the FlgM gene. […] Tag1 to Tag4 represent the four different Tagged-intron variant plasmids which contain the T (targeting) or the NT (non-targeting) crRNA. […] On the contrary, transformants bearing plasmids with an NT crRNA were all WT.

LacZa of E. coli MG1655 = experiment: FnCas12a targeting assay with Tagged-T4 td intron variants (CFU drop plating); assay type: cell-based; conditions: T crRNA (LacZ), selection medium with 2 mM theophylline
Source text: Four different intron variants (as shown previously in FIG. 8), referred to as “Tag1”, “Tag2”, etc. (Tag1: −4P, −5P, −6P; Tag2: −4W, […] −4W, −5W, −6P; Tag4: −4M, −5P, −6P) are inserted directly after the start codon of the GOI (FnCas12a gene). The 5′ exon sequences of the four different tags are indicated: Tag1: TCCtcaGGT (SEQ ID NO: 7); Tag2: TCCtcgGGT (SEQ ID NO: 8); Tag3: TCCttgGGT (SEQ ID NO: 9); Tag4: TCCtctGGT (SEQ ID NO: 10). The 3′ exon sequence is conserved amongst the 4 different tags and indicated as CTA (SEQ ID NO: 12). The amino acids corresponding to the Tag sequences are indicated with capital bold letters above the Tagged-introns. Intron-less (wild-type) FnCas12a was used as a reference for comparison. Efficiency of targeting of the different Tagged-T4 td intron variants was assessed by using either a LacZa targeting (T) or a non-targeting (NT) crRNA and by comparing the amount of colony forming units (CFUs) of transformed E. coli MG1655 per μg of plasmid used (CFUs μg^−1). CFU was determined by the number of colonies observed.
Electrocompetent E. coli MG1655 were transformed (2.5 kV, 200 Ω, 25 μF) with 10 ng μL^−1 of the respective plasmid and recovered for 1 hour in 500 μL LB medium [10 g L^−1 tryptone (Oxoid), 5 g L^−1 yeast extract (BD), 10 g L^−1 NaCl (Acros)] at 37° C. Then, the recovered culture was serially diluted and drop plated on selective (50 μg mL^−1 kanamycin) LB agar plates in the presence or absence of 2 mM theophylline. The agar plates were incubated at 30° C. for 24 hours and the CFUs were counted.
E. coli MG1655 was transformed with a series of plasmids (listed in Table 4) and serially diluted and drop plated on selective (kanamycin) LB media with or without 2 mM theophylline. […] The effect of the CFU reduction was more apparent for the Tag4-intron where colonies could only be observed at the 10° dilution, followed by Tag3-intron (10^−1) then Tag2-intron (10^−2) and finally Tag1-intron ([…]).

[1] = test system: lacZ gene from E. coli interrupted with the T4 td intron; experiment: LacZ colorimetric (β-galactosidase) assay of T4 td intron exon variants; assay type: cell-based
Source text: To investigate the effect of the flanking regions of the T4 td intron on its splicing efficiency and on the expression of the target gene, a series of constructs were made containing the lacZ gene from E. coli with the intron in between amino acids D6 and S7 (see FIG. 5). These amino acids were identified because insertion at this location would be least likely to impact on the structure of the protein. The lacZ gene was used because its functional expression can be easily monitored by a colorimetric assay and because of its high tolerance for modification at the 5′ end. LacZa is interrupted with the T4 td intron and therefore non-functional. Upon self-splicing and excision of the intron, the ORF of LacZa is complete and functional. LacZa encodes for β-galactosidase which is able to hydrolyse ortho-nitrophenyl-β-D-galactopyranoside (ONPG) into β-D-galactose and ortho-nitrophenol (ONP). ONP can be measured through colorimetric assays. Mutations were made by PCR in the 5′ flank as depicted in Table 1.
All position numbers are relative to the 5′ splice site. […] Since there is the possibility of base pairing, the effect of disallowing base pairing was assessed. If there is no interaction between position −7 and the Internal Guide Sequence (IGS), (the sequence at P1 that forms the base pairing with the 5′ exon sequence), and no difference in LacZ activity should be observed. The −7 position was mutated (while all other nucleotides remained WT) to form either a wobble pair or a mismatch. The self-splicing activity of the three intron variants for β-galactosidase activity was assessed after overnight growth.
This is similar to the situation with the −7 position. Therefore, point mutations at the +296 position of the T4 td intron were made to see if they might impact on the splicing activity of the intron. The WT +296 position (mismatch) was mutated by PCR (Table 2) to form either a pair or a wobble pair with the P1 loop. All mutants were assayed for β-galactosidase activity after overnight growth.
This investigated the effect of altering positions −4 to −6 in all possible combinations of pair (P), mismatch (M) and wobble pair (W) (if applicable) whilst preserving all the other bases as WT. With reference to FIGS. 1 and 4A, positions −4 to −6 is GUU (positions −6 to −4 are UUG) and these pair or interact with UGA at positions +12 to +14, respectively.
In FIG. 8 the wild type intron (*) is (sequences shown from 5′ to 3′) PWM/(UUG) and set to 1. All other LacZ activities are a fraction of the wild type activity. PMP reads either UAA or UGA both being stop codons (**). […] A wobble base pair at position −5 negates to a large extent the effect that −6 and −4 have on the splicing. […]

[2] = test system: LacZ gene of E. coli MG1655; experiment: SIBR-Cas genome editing (HR and CRISPR-Cas counterselection) of LacZ; assay type: cell-based; conditions: for unbiased editing efficiency (LacZ deletion by PCR of randomly selected colonies): X-gal omitted from the medium; for editing efficiency: percentage of white colonies from total CFUs mL-1: blue/white screening, LacZ targeting, induced after 1 hour recovery
Source text: For efficient genome editing in bacteria, HR should precede CRISPR-Cas counterselection. To assess whether tight control over CRISPR-Cas targeting could bolster the efficiency of CRISPR-Cas mediated genome editing by allowing more time for HR to occur, we used SIBR-Cas and targeted the LacZ gene of E. coli MG1655 for knock-out through HR and CRISPR-Cas counterselection using a blue/white screening colony assay. To facilitate HR, we added 500 bp up- and down-stream homology arms to the plasmids expressing the four SIBR-Cas (Int1-4) and WT-FnCas12a variants that target the LacZ gene. After 1 hour recovery, we induced the expression of the SIBR-Cas variants to counterselect the WT from the mutant colonies.
Since disruption of LacZ can also be achieved through non-HR mediated approaches (spontaneous mutations or occasional error-prone DNA repair following DNA cleavage by Cas12a), not all gene deletions can be screened phenotypically. Therefore, we repeated our experiment, but X-gal was omitted from the medium to eliminate the possibility of false-positives. Randomly selected colonies that were obtained were screened by PCR for LacZ deletion showing a 0%, 0%, 29% and 38% editing efficiency for Int1, Int2, Int3 and Int4 SIBR-Cas variants, respectively (FIG. 24C). […] The observed decrease in editing efficiency (compared to the blue/white screening) might be attributed to spontaneous LacZ mutations that escape CRISPR-Cas counterselection. Nevertheless, a high editing efficiency (38%) was observed when SIBR-Cas Int4 was used without the use of recombinases or any other complex systems.

Row | Molecule | editing efficiency (FlgM knock-out by colony PCR) (FlgM gene of P. putida) [%] | dilution at which colonies could be observed (LacZa of E. coli MG1655) | self-splicing activity ranking of the Tag/Int variants [1] | self-splicing activity ranking of the Tag/Int variants ([1]; listed as Int1) | unbiased editing efficiency (LacZ deletion by PCR of randomly selected colonies) [2] [%] | editing efficiency: percentage of white colonies from total CFUs mL-1 [2] [%] | unbiased editing efficiency (LacZ deletion by PCR of randomly selected colonies) ([2]; listed as Int3) | editing efficiency: percentage of white colonies from total CFUs mL-1 ([2]; listed as Int3) | self-splicing activity ranking of the Tag/Int variants ([1]; listed as Int4) | unbiased editing efficiency (LacZ deletion by PCR of randomly selected colonies) ([2]; listed as Int4) | editing efficiency: percentage of white colonies from total CFUs mL-1 ([2]; listed as Int4) | editing efficiency: percentage of white colonies from total CFUs mL-1 ([2]; listed as Int2)
1 | Tag1: theophylline dependent T4 td intron after ATG of FnCas12a; −4P, −5P, −6P; 5′ exon TCCtcaGGT; SEQ ID NO: 49 (nucleic acid, Tag1 T4 td intron with the theophylline aptamer) DNA: TCCTCAGGTTAATTGAGGCCTGAGTATAAGGTGACTTATACTTGTAATCTATCTAAACGGGGAACCTCTCTAGTAGACAATCCCGTGCTAAATTGATACCAGCATCGTCTTGATGCCCTTGGCAGCATAAATGCCTAACGACTATCCCTTTGGGGAGTAGGGTCAAGTGACTCGAAACGATAGACAACTTGCTTTAACAAGTTGGAGATATAGTCTGCTCTGCATGGTGACATGCAGCTGGATATAATTCCGGGGTAAGATTAACGACCTTATCTGAACATAATGCTA | 0 | 10^−2 | most “tight” | worst | 0 | 0 |  |  |  |  |  | 
2 | Tag3: theophylline dependent T4 td intron tag; −4W, −5W, −6P; 5′ exon TCCttgGGT; SEQ ID NO: 47 (nucleic acid, Tag3 T4 td intron with the theophylline aptamer) DNA: TCCTTGGGTTAATTGAGGCCTGAGTATAAGGTGACTTATACTTGTAATCTATCTAAACGGGGAACCTCTCTAGTAGACAATCCCGTGCTAAATTGATACCAGCATCGTCTTGATGCCCTTGGCAGCATAAATGCCTAACGACTATCCCTTTGGGGAGTAGGGTCAAGTGACTCGAAACGATAGACAACTTGCTTTAACAAGTTGGAGATATAGTCTGCTCTGCATGGTGACATGCAGCTGGATATAATTCCGGGGTAAGATTAACGACCTTATCTGAACATAATGCTA | 36.6 | 10^−1 |  |  |  |  | 29%±18.04% and 29% | 49%±8.75% and 49% |  |  |  | 
3 | Tag4: theophylline dependent T4 td intron tag; −4M, −5P, −6P; 5′ exon TCCtctGGT; SEQ ID NO: 48 (nucleic acid, Tag4 T4 td intron with the theophylline aptamer) DNA: TCCTCTGGTTAATTGAGGCCTGAGTATAAGGTGACTTATACTTGTAATCTATCTAAACGGGGAACCTCTCTAGTAGACAATCCCGTGCTAAATTGATACCAGCATCGTCTTGATGCCCTTGGCAGCATAAATGCCTAACGACTATCCCTTTGGGGAGTAGGGTCAAGTGACTCGAAACGATAGACAACTTGCTTTAACAAGTTGGAGATATAGTCTGCTCTGCATGGTGACATGCAGCTGGATATAATTCCGGGGTAAGATTAACGACCTTATCTGAACATAATGCTA |  | 10° | most “loose” |  |  |  |  |  | best splicer | 38%±6.41% and 38% | 80%±5.57% and 80% | 
4 | Tag2: theophylline dependent T4 td intron tag; −4W, −5P, −6P; 5′ exon TCCtcgGGT; SEQ ID NO: 46 (nucleic acid, Tag2 T4 td intron with the theophylline aptamer) DNA: TCCTCAGGTTAATTGAGGCCTGAGTATAAGGTGACTTATACTTGTAATCTATCTAAACGGGGAACCTCTCTAGTAGACAATCCCGTGCTAAATTGATACCAGCATCGTCTTGATGCCCTTGGCAGCATAAATGCCTAACGACTATCCCTTTGGGGAGTAGGGTCAAGTGACTCGAAACGATAGACAACTTGCTTTAACAAGTTGGAGATATAGTCTGCTCTGCATGGTGACATGCAGCTGGATATAATTCCGGGGTAAGATTAACGACCTTATCTGAACATAATGCTA | 39.3 | 10^−2 |  |  | 0 |  |  |  |  |  |  | 1%±0.35% and 1%
